Reference: paper PMC4081078

Experiments:
TRF2 [1] = target: T1, TRF2 (UniProt Q15554 1-542); test: EMSA
TRF1 = TRF1 (UniProt P54274 1-439); test: EMSA
TRF2ΔB = TRF2ΔB (UniProt Q15554 87-542); test: EMSA
TRF2 [2] = target: T1, TRF2; test: EMSA; remark: listed apart in the source
TRF2 [3] = target: T1, TRF2; test: EMSA; remark: listed apart in the source
TRF2 [4] = target: T1, TRF2; test: pull-down, immunoblot

T1 sequence (Q15554 whole entry): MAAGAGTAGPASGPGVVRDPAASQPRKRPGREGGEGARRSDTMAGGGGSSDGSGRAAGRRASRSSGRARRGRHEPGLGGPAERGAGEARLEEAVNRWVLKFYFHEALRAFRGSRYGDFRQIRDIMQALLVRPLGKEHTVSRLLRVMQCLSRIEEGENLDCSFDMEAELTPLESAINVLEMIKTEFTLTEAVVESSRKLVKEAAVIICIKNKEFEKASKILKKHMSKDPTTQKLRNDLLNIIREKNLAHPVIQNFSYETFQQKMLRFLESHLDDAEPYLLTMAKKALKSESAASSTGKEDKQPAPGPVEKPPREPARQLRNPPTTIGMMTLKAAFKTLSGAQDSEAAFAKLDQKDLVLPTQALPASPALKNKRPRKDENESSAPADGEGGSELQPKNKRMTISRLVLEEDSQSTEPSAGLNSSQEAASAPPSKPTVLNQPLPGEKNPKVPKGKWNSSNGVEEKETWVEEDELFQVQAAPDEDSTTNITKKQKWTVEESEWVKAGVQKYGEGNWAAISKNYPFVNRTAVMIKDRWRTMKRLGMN
Sequence of TRF2ΔB (Q15554 87-542, stated change not applied): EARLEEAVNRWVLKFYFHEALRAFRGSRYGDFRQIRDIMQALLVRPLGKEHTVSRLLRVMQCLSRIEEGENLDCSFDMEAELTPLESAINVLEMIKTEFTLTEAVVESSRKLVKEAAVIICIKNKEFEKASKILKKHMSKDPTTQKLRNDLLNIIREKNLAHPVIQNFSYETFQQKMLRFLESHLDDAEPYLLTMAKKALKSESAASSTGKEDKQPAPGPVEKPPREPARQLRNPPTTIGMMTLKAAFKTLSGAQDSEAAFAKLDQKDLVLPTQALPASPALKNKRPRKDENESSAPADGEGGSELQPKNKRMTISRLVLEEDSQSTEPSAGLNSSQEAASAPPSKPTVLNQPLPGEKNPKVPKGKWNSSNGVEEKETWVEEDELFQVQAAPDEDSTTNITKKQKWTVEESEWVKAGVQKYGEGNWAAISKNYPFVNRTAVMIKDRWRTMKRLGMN
Sequence of TRF1 (P54274 whole entry): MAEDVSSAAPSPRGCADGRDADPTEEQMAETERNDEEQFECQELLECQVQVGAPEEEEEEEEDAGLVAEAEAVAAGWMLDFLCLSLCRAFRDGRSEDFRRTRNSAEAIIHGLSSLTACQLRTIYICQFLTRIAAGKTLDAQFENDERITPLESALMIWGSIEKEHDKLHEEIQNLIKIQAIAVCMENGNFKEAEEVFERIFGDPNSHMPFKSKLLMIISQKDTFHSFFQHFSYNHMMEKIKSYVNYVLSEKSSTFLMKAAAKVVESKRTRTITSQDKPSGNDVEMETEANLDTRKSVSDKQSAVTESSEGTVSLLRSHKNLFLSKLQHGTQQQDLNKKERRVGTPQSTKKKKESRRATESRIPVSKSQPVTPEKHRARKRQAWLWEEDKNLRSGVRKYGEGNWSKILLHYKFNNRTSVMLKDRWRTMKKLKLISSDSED

B1: *G77telo/C38telo (dsDNA)
DNA 1: AGCTGAGCATGTCCAGACATGTCCTAGGGTTAGGGTTAGGGTTAGGGTTAGGGTTAGGGTTAGGGTTAGGGTTAGGG
DNA 2: TAACCCTAACCCTAGGACATGTCTGGACATGCTCAGCT
modifications: phosphorothioate after nt 1 of each strand
binding result (TRF2 [1]): binds

B2: *G77telo/C77telo (dsDNA)
DNA 1: AGCTGAGCATGTCCAGACATGTCCTAGGGTTAGGGTTAGGGTTAGGGTTAGGGTTAGGGTTAGGGTTAGGGTTAGGG
DNA 2: CCCTAACCCTAACCCTAACCCTAACCCTAACCCTAACCCTAACCCTAACCCTAGGACATGTCTGGACATGCTCAGCT
modifications: phosphorothioate after nt 1 of each strand
binding result (TRF1): binds
binding result (TRF2ΔB): binds
binding result (TRF2 [2]): binds

B3: *G77telo/C50telo (dsDNA)
DNA 1: AGCTGAGCATGTCCAGACATGTCCTAGGGTTAGGGTTAGGGTTAGGGTTAGGGTTAGGGTTAGGGTTAGGGTTAGGG
DNA 2: TAACCCTAACCCTAACCCTAACCCTAGGACATGTCTGGACATGCTCAGCT
modifications: phosphorothioate after nt 1 of each strand
binding result (TRF2ΔB): binds
binding result (TRF2 [3]): binds

B4: b-G68telo/C50telo (dsDNA)
DNA 1: AGCTGAGCATGTCCAGACATGTCCTAGGGTTAGGGTTAGGGTTAGGGTTAGGGTTAGGGTTAGGGTTA
DNA 2: TAACCCTAACCCTAACCCTAACCCTAGGACATGTCTGGACATGCTCAGCT
modifications: phosphorothioate after nt 1 of each strand
binding result (TRF2 [4]): binds
